Laboratory results reported in patent US20090252727A1 (Eli Lilly, published 2009).

Key:
Test in all cases: competition with [125I]glucagon, SPA, membranes of 293HEK cells expressing the receptor
[1] = target: T1, rat glucagon receptor (rat, UniProt P30082 28-485)
T1 construct: Cloned receptor expressed in 293HEK cells; also called rat GluR; rat GlucR

[2] = target: T2, human glucagon receptor (human, UniProt P47871 27-477)
T2 construct: Cloned receptor expressed in 293HEK cells; also called human GluR; human GlucR

[3] = target: T3, cynomologous monkey glucagon receptor (cynomologous monkey, UniProt P47871 27-477 (human entry))
T3 construct: Cloned receptor expressed in 293HEK cells; also called cyno GluR; cyno GlucR
T3 chain: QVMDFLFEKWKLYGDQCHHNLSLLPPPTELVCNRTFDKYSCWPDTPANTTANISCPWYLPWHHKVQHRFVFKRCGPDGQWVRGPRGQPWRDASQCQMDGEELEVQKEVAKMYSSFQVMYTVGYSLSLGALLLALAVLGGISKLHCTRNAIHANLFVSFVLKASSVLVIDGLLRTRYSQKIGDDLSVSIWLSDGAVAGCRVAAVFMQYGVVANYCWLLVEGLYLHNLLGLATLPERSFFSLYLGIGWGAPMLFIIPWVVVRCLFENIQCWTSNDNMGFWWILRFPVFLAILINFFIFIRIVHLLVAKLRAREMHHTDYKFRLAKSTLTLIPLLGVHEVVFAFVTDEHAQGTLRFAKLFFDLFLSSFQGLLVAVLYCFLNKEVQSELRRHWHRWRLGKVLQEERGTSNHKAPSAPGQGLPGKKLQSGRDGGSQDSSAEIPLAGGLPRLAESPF

[4] = target: T4, mouse glucagon receptor (mouse, UniProt Q61606 28-485)
T4 construct: Cloned receptor expressed in 293HEK cells; also called murine GluR; mouse GlucR
T4 chain: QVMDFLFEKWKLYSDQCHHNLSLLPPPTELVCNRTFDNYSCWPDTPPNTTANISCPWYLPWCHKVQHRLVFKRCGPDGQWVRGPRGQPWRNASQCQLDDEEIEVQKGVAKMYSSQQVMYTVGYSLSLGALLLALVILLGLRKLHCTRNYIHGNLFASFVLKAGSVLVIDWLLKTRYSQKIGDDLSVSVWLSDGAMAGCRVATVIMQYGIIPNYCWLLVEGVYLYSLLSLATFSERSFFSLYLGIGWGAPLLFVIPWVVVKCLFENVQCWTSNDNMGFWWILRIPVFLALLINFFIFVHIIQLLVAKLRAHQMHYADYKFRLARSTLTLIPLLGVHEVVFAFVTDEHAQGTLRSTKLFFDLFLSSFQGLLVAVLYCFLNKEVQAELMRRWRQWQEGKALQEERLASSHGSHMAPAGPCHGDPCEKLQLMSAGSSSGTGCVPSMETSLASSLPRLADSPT

Measured: Ki

B1: Fab fragment of antibody example 1 (Fab, V domains shown)
VH: QVQLQESGPGLVKPSETLSLTCTVSGDDITSGYWDWIRQPPGKGLEWIGYISYSGSTYYSPSLKSRVTISVDTSKNQFSLKLSSVTAADTAVYYCARPPGYYGFGPYALDYWGQGTLVTVSS
VL: DIQMTQSPSSLSASVGDRVTITCSASSSVSYMHWYQQKPGKAPKLLIYTTSNLAHGVPSRFSGSGSGTDFTLTISSLQPEDFATYYCQWRSTLPPTFGGGTKVEIKR
notes: Expressed in E. coli; Fab = VL+CL and VH+CH1 (Fc absent); also called Fab of Ab1; not shown: His tag
< 50 nM: all assays above

B2: Fab fragment of antibody example 6 (Fab, V domains shown)
VH: QVQLQESGPGLVKPSETLSLTCTVSGDDITSGYHDWIRQPPGKGLEWIGYISYSGSTYYSPSLKSRVTISVDTSKNQFSLKLSSVTAADTAVYYCARPPAYYGFGPYALDYWGQGTLVTVSS
VL: DIQMTQSPSSLSASVGDRVTITCSASSSVSYIHWYQQKPGKAPKLLIYTTSYLAHGVPSRFSGSGSGTDFTLTISSLQPEDFATYYCQQRSTLPPTFGGGTKVEIKR
notes: Expressed in E. coli; Fab = VL+CL and VH+CH1 (Fc absent); also called Fab of Ab6; not shown: His tag
< 50 nM: all assays above

B3: Fab fragment of antibody example 2 (Fab, V domains shown)
VH: QVQLQESGPGLVKPSETLSLTCTVSGDDITSGYWNWIRQPPGKGLEWIGYISYSGSTYYIPSLKSRVTISVDTSKNQFSLKLSSVTAADTAVYYCARPPGYYGFGPYAMDYWGQGTLVTVSS
VL: DIQMTQSPSSLSASVGDRVTITCSYSSSVSYMHWYQQKPGKAPKLLIYTTSNLAHGVPSRFSGSGSGTDFTLTISSLQPEDFATYYCQQRSTLPPTFGGGTKVEIKR
notes: Expressed in E. coli; Fab = VL+CL and VH+CH1 (Fc absent); also called Fab of Ab2; not shown: His tag
< 50 nM: all assays above

B4: Fab fragment of antibody example 3 (Fab, V domains shown)
VH: QVQLQESGPGLVKPSETLSLTCTVSGDDITSGYWDWIRQPPGKGLEWIGYISYSGSTYYSPSLKSRVTISVDTSKNQFSLKLSSVTAADTAVYYCARPPGYYGFGPYALDYWGQGTLVTVSS
VL: DIQMTQSPSSLSASVGDRVTITCSASSSVSYIHWYQQKPGKAPKLLIYTTSYLAHGVPSRFSGSGSGTDFTLTISSLQPEDFATYYCLQRSTLPPTFGGGTKVEIKR
notes: Expressed in E. coli; Fab = VL+CL and VH+CH1 (Fc absent); also called Fab of Ab3; not shown: His tag
< 50 nM: all assays above

B5: Antibody of example 6 (Ab6) (antibody, human IgG4 S228P, kappa, F234A L235A, V domains shown)
VH: QVQLQESGPGLVKPSETLSLTCTVSGDDITSGYHDWIRQPPGKGLEWIGYISYSGSTYYSPSLKSRVTISVDTSKNQFSLKLSSVTAADTAVYYCARPPAYYGFGPYALDYWGQGTLVTVSS
VL: DIQMTQSPSSLSASVGDRVTITCSASSSVSYIHWYQQKPGKAPKLLIYTTSYLAHGVPSRFSGSGSGTDFTLTISSLQPEDFATYYCQQRSTLPPTFGGGTKVEIKR
notes: Humanized full antibody with kappa light chain and modified human IgG4 Fc
< 50 nM: all assays above

B6: Antibody of example 5 (Ab5) (antibody, human IgG4 S228P, kappa, F234A L235A, V domains shown)
VH: QVQLQESGPGLVKPSETLSLTCTVSGDDITSGYHDWIRQPPGKGLEWIGYISYSGSTQYSPSLKSRVTISVDTSKNQFSLKLSSVTAADTAVYYCARPPGYYGFGPYALDYWGQGTLVTVSS
VL: DIQMTQSPSSLSASVGDRVTITCSASSSVSYIHWYQQKPGKAPKLLIYTTSYLAHGVPSRFSGSGSGTDFTLTISSLQPEDFATYYCQQRSTLPPTFGGGTKVEIKR
notes: as for B5
< 50 nM: all assays above

B7: Antibody of example 3 (Ab3) (antibody, human IgG4 S228P, kappa, F234A L235A, V domains shown)
VH: QVQLQESGPGLVKPSETLSLTCTVSGDDITSGYWDWIRQPPGKGLEWIGYISYSGSTYYSPSLKSRVTISVDTSKNQFSLKLSSVTAADTAVYYCARPPGYYGFGPYALDYWGQGTLVTVSS
VL: DIQMTQSPSSLSASVGDRVTITCSASSSVSYIHWYQQKPGKAPKLLIYTTSYLAHGVPSRFSGSGSGTDFTLTISSLQPEDFATYYCLQRSTLPPTFGGGTKVEIKR
notes: as for B5
< 50 nM: all assays above

B8: Antibody of example 2 (Ab2) (antibody, human IgG4 S228P, kappa, F234A L235A, V domains shown)
VH: QVQLQESGPGLVKPSETLSLTCTVSGDDITSGYWNWIRQPPGKGLEWIGYISYSGSTYYIPSLKSRVTISVDTSKNQFSLKLSSVTAADTAVYYCARPPGYYGFGPYAMDYWGQGTLVTVSS
VL: DIQMTQSPSSLSASVGDRVTITCSYSSSVSYMHWYQQKPGKAPKLLIYTTSNLAHGVPSRFSGSGSGTDFTLTISSLQPEDFATYYCQQRSTLPPTFGGGTKVEIKR
notes: as for B5
< 50 nM: all assays above

B9: Fab fragment of antibody example 5 (Fab, V domains shown)
VH: QVQLQESGPGLVKPSETLSLTCTVSGDDITSGYHDWIRQPPGKGLEWIGYISYSGSTQYSPSLKSRVTISVDTSKNQFSLKLSSVTAADTAVYYCARPPGYYGFGPYALDYWGQGTLVTVSS
VL: DIQMTQSPSSLSASVGDRVTITCSASSSVSYIHWYQQKPGKAPKLLIYTTSYLAHGVPSRFSGSGSGTDFTLTISSLQPEDFATYYCQQRSTLPPTFGGGTKVEIKR
notes: Expressed in E. coli; Fab = VL+CL and VH+CH1 (Fc absent); also called Fab of Ab5; not shown: His tag
< 50 nM: all assays above

B10: Fab fragment of antibody example 7 (Fab, V domains shown)
VH: QVQLQESGPGLVKPSETLSLTCTVSGDDITSGYHEWIRQPPGKGLEWIGYISYSGSTSYSPSLKSRVTISVDTSKNQFSLKLSSVTAADTAVYYCARPPAYYGFGPYALDYWGQGTLVTVSS
VL: DIQMTQSPSSLSASVGDRVTITCSASSSVSYIHWYQQKPGKAPKLLIYTTSYLAHGVPSRFSGSGSGTDFTLTISSLQPEDFATYYCQQRSTLPPTFGGGTKVEIKR
notes: Expressed in E. coli; Fab = VL+CL and VH+CH1 (Fc absent); also called Fab of Ab7; not shown: His tag
< 50 nM: all assays above

B11: Antibody of example 7 (Ab7) (antibody, human IgG4 S228P, kappa, F234A L235A, V domains shown)
VH: QVQLQESGPGLVKPSETLSLTCTVSGDDITSGYHEWIRQPPGKGLEWIGYISYSGSTSYSPSLKSRVTISVDTSKNQFSLKLSSVTAADTAVYYCARPPAYYGFGPYALDYWGQGTLVTVSS
VL: DIQMTQSPSSLSASVGDRVTITCSASSSVSYIHWYQQKPGKAPKLLIYTTSYLAHGVPSRFSGSGSGTDFTLTISSLQPEDFATYYCQQRSTLPPTFGGGTKVEIKR
notes: as for B5
< 50 nM: all assays above

B12: Antibody of example 1 (Ab1) (antibody, human IgG4 S228P, kappa, F234A L235A, V domains shown)
VH: QVQLQESGPGLVKPSETLSLTCTVSGDDITSGYWDWIRQPPGKGLEWIGYISYSGSTYYSPSLKSRVTISVDTSKNQFSLKLSSVTAADTAVYYCARPPGYYGFGPYALDYWGQGTLVTVSS
VL: DIQMTQSPSSLSASVGDRVTITCSASSSVSYMHWYQQKPGKAPKLLIYTTSNLAHGVPSRFSGSGSGTDFTLTISSLQPEDFATYYCQWRSTLPPTFGGGTKVEIKR
notes: as for B5
< 50 nM: all assays above
